Data as given in the nanobody polyreactivity screen of Harvey et al. (2022).

Assay: yeast display, Sf9 membrane polyspecificity reagent, FACS + sequencing; frameworks hold sequencing errors
Summary of the method: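 In a synthetic yeast display library (Saccharomyces cerevisiae BJ5465), nanobody expression was induced with galactose for 36–48 hours. FACS gates were set low and high (top ~1%) using anti-HA fluorescence for expression and streptavidin fluorescence for binding of the Sf9 membrane reagent. Each polyreactivity label is drawn from the gate of origin.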

Row | Sequence | polyreactivity (PSR sort gate)
1 | QVQLVESGGGLVQAGGSLRLSCAASGRTFAPYAMGWYRQAPGKERELVAAISQRGGSTYYADSVKGRFTISRDNAKNTVYLQMNSLKPEDTAIYYCAATKYFYRLSSAFSFGTYGYWGQGTQVTVSS | low polyreactivity
2 | QVQLVESGGGLVQAGGSLRLSCAASGRTFAPYAMGWYRQAPGKERELVAGITYRTGNTYYADSVKGRFTISRDNAKNTVYLQMNTLKPEDTGVYYCAAYSGYYRPRYNYWGQGTQVTVSS | high polyreactivity
3 | QVQLVESGGGLVQAGGSLRLSCAASGRTFAPYVMGWYRQAPGKERELVAAITWSGGSTYYADSVKGRFTISRDNAKKTVYLQMNSLKPEDTAVYYCAVKGAGGPKYDYWGQGTQVTVSS | high polyreactivity
4 | QVQLVESGGGLVQAGGSLRLSCAASGRTFARYAMGRYRQAPGKERELVAAITRGSGSTYYADSVKGRFTISRDNAKNTVYLQMNSLKTEDTAVYFCAKRSRGLKFDYWGQGTQVTVSS | high polyreactivity
5 | QVQLVESGGGLVQAGGSLRLSCAASGRTFARYAMGWYRQAPGKERELVASNRRGTSTNYADSVKGRFTISRDNAKNTVYLQMNSLKPEDTAVYYCAARVGTQGDHGDYWGQGTQVTVSS | high polyreactivity
6 | QVQLVESGGGLVQAGGSLRLSCAASGRTFASNAMGCYRQAPGKERELVAAITISGGRTYYADSVKGRFTISRDNAKNTVYLQMNSLKPEDTAVYYRAAAKHSWRPSYYWGGYWGQGTQVTVSS | low polyreactivity
7 | QVQLVESGGGLVQAGGSLRLSCAASGRTFASYAMGWNRQPPGKERELFARISKSGGSTYYADSVKGRFTISRDNAKNTVYLQMNSLKPEDTAVYYCAAEYPFEIGYVYYSIDYDYWRQGTQVTVSS | low polyreactivity
8 | QVQLVESGGGLVQAGGSLRLSCAASGRTFASYAMGWYRQAPGKERELVAGITSGGNTYYADSVKGRFTISRDNAKNTVYLQMNSLKPEDTAVFYCAADGVYKGWPTHYDYWGHGTQVTVSS | high polyreactivity
9 | QVQLVESGGGLVQAGGSLRLSCAASGRTFASYAMGWYRQAPGKERQLVAAITRGGNTNYADSVKGRFTISRDNAKNTVYLQMNSLNPEDTAVYYCATEGFVYSWLWEFEYWGQGTQVTVSS | low polyreactivity
10 | QVQLVESGGGLVQAGGSLRLSCAASGRTFATNAMGWYRQAPGKERELVAAISRRGASTYYADSVKGRFTISRDNAKNTVYLQMNSLKPEDTAVYYCAARQYIRGARIYDYWGQGTQVTVSS | high polyreactivity
11 | QVQLVESGGGLVQAGGSLRLSCAASGRTFATYAMGWYRQAPGKERELVAAISNSGGRTNYADSVKGRFTISRDNAKNTVYLQMNSLKPEDTAVYYCAAAKRYYSEMYWGQGTQVTVSS | high polyreactivity
12 | QVQLVESGGGLVQAGGSLRLSCAASGRTFATYTMGWYRQAPGQERELVAAITRGGGSTFYADSVQGRFTITRDHAKNPVYLQMNSLKPEDTAVYYFAARIPGSFKSGYWGQGTQVTVSS | high polyreactivity
13 | QVQLVESGGGLVQAGGSLRLSCAASGRTFAVYAMGWYRQAPGKERELVAAISRRGGSTYYADSVKGRFTISRDNAKNTVYLQMNSLKPEDTAVYYCATDNSQSTYPYDYWGQGTQVTVSS | high polyreactivity
14 | QVQLVESGGGLVQAGGSLRLSCAASGRTFAYNAMGWYRQAPGKERELVAAIRWSADSTYYADSVKGRFTISRDNAKNTVYLQMNSLKPEDTAVYYCARRRYVGAFSVATLDYWGQGTQVTVSS | high polyreactivity
15 | QVQLVESGGGLVQAGGSLRLSCAASGRTFAYNAMGWYRQAPGKERELVAAITRRGGSTYYADSVKGRFTISRDNAKITVYLQMNSLKPEDTAVYYCDARWVTTVQGDGRYDYWGQGTQVTVSS | low polyreactivity
16 | QVQLVESGGGLVQAGGSLRLSCAASGRTFAYNTMGWYRQAPGKERELVAVISSGGRTYYADSGKGRFTMSRDNAKNTVYLQMNSLKPEDTAVYYCAADGYPYKYDYWGQGTQVTVSS | high polyreactivity
17 | QVQLVESGGGLVQAGGSLRLSCAASGRTFAYYAMGWYRQAPGKERELVAAIDSSGGDTYYADSVKGRFTISRDNAKNTVYLQMNSLKPEDTAVYYCAADYYWEMDSWGQGTQVTVSS | low polyreactivity
18 | QVQLVESGGGLVQAGGSLRLSCAASGRTFAYYAMGWYRQAPGKERELVAAISSGGGSTYYADSVKGRFTISRDNAKNTVYLQMNRLKPEDTSVYYCNKGFEFWGQGTQVTVSS | high polyreactivity
19 | QVQLVESGGGLVQAGGSLRLSCAASGRTFAYYAMGWYRQAPGKERELVAAITQSGGRTYYADSVKGRFTISRDNAKNTVYLQMNSLKPEDTAVYYCAARRISGKWEYDYWGQGTQVTVSS | high polyreactivity
20 | QVQLVESGGGLVQAGGSLRLSCAASGRTFAYYAMGWYRQAPGTERELVAAISYSGARTYYADSVKGRFTISRDNAKNTVYLQMNSLKPEDTAVYYCAKSRGYPYTDYNYWGQGTQVTVSS | high polyreactivity
21 | QVQLVESGGGLVQAGGSLRLSCAASGRTFAYYTMGWYRQAPGKERELVAAISWIGGSTYYADSVKGRFTISRDNAKNTVYLQMNSLKPEDTAVYYCNAVGLHWWPGDYWGQGTQVTVSS | low polyreactivity
22 | QVQLVESGGGLVQAGGSLRLSCAASGRTFAYYTMGWYRQAPGKERELVARISGYGGSTYYADSVKGRFTLSRDNAKNTVYLQMNSLKPEDTAVYYCNVVGAYYRYDYWGQGTQVTVSS | high polyreactivity

Row | Sequence | polyreactivity (PSR sort gate)
23 | QVQLVESGGGLVQAGGSLRLSCAASGRTFCSNAMGWYRQAPGKERELVARISWSGGSTYYADSVKGRFTISRDNAKNTVYLQMNSLKPEVTAVYYCAKYYPGRSAFSEGTYWGQGTQVTVSS | low polyreactivity
24 | QVQLVESGGGLVQAGGSLRLSCAASGRTFCSYTKAWYRQAPGKERELVAAISSGGSTTYADSVKGRFTISRDNAKNTVYLQLNSLKPEDTAVYYCATRAVWSSWGRRYDPWGQGTQVTVSS | high polyreactivity
25 | QVQLVESGGGLVQAGGSLRLSCAASGRTFCVYVMGWYRQAPGKERQLVAAIDDSGGSTYYADSVKGRFTISRDNAKNTVYLQMNSLKPEDTAVYYCAKTKTQYLTSEIRFDYWGQGTQVTVSS | low polyreactivity
26 | QVQLVESGGGLVQAGGSLRLSCAASGRTFDEYPMGWYRQAPGKERELVAAISTRGGSTYYADSVKGRFSISRDNAKNTVYLQMNSLKPEDTAVYYCAKAYYPYRYFSVYSDLESWGQGTQVTVSS | high polyreactivity
27 | QVQLVESGGGLVQAGGSLRLSCAASGRTFDFYAMGWYRQAPGKERELVAGITSGDSTHYADSVKGRFTISRDNAKNTVYLQMNSLKPEDTAVYYCAADITWYDYAGSHIVEHDYWGQGTQVTVSS | low polyreactivity
28 | QVQLVESGGGLVQAGGSLRLSCAASGRTFDGYTMGWYRQAPGKERELVAAISGGGGSTYYADSVKGRFTISRDNAKNTVYLQLNSLKPEDTAVYYCNKVVRQHGGLYNYWGQGTQVTVSS | low polyreactivity
29 | QVQLVESGGGLVQAGGSLRLSCAASGRTFDHNAMGWYRQAPGKERELVAAITWSGGITDYADSVKRPFTISRDNAKNTVYLQMNSLKPEDTAVCGQGTQVTVSS | low polyreactivity
30 | QVQLVESGGGLVQAGGSLRLSCAASGRTFDHYAMGWYIQAPGKERELVAAISNSDGSTNYADSVKGRFTISRDNAMNTVYLQMNSLKPEDTAVYYCNKLYRGGWYDYWGLGTQVTVSS | low polyreactivity
31 | QVQLVESGGGLVQAGGSLRLSCAASGRTFDIYAMGWYRQAPGKERELVAAINRSAGDTYYADSVKGGFTISRDNAKNTVYLQMNSLKPEDTAVYYCNAERVPYVPWLLYTEYVNYVYWGQGTQLTVSS | high polyreactivity
32 | QVQLVESGGGLVQAGGSLRLSCAASGRTFDLNGMGWYRQAPGKERELVAAITRGGSTNYADSVKGRFTISRDNAKNTVYLQMNSLKPEDTAVYYCAADSSFWYYDRYDYWGQGTQVTVSS | low polyreactivity
33 | QVQLVESGGGLVQAGGSLRLSCAASGRTFDPYAMGWYIQAPGKERELVAAITSGDDTYYADSVKGRFTISRDNAKNTVYLQMNSLKPEDTAVYYCAADSFTPDYYSHDYWGQGTQVTVSS | low polyreactivity
34 | QVQLVESGGGLVQAGGSLRLSCAASGRTFDPYAMVWYRQAPGKERELVAAISSGGSTNYADSVKGRFTISRDNAMYTVYLQMNSLKPEDTAVYFCATDSGDGEGDYWGQGTQVTVSS | low polyreactivity
35 | QVQLVESGGGLVQAGGSLRLSCAASGRTFDRNAMGWYRQAPGKERELVAAITSRGGRTYYADSVKGRFTISRDNAKNTVYLQMNSLKPEDTAVYYCAAQGRGHRFGDSRDNYWGQGTQVTVSS | high polyreactivity
36 | QVQLVESGGGLVQAGGSLRLSCAASGRTFDRNAMGWYRQAPGKERELVARITIDGSTNYADSVKGRFTISRDNAKNTVYLQMNSLKPEDTAVYYCATDQLSLSWYFRPYDYGYWGQGTQVTVSS | high polyreactivity
37 | QVQLVESGGGLVQAGGSLRLSCAASGRTFDRNTMGWYRQAPGKERELVAAISGSSARTYYADSVKGRFTISRDNAKNTVYLQMNSLKPEDTAVYYCNAEYGARAQHYEGDSWGQGTQVTVSS | high polyreactivity
38 | QVQLVESGGGLVQAGGSLRLSCAASGRTFDRYAMGWYRQAPGKERELVAAITWSGGRTYYADSVKGRFTISRDNAKNTVYLQMNSLKPEDTAVYYCAADDPRDHWYTAMDYWGQGTQVTVSS | low polyreactivity
39 | QVQLVESGGGLVQAGGSLRLSCAASGRTFDRYAMGWYRQAPGKERELVATISRRSSITYYADSVKGRFTISRDNAKNTVYLQMNRLKPEDTAVYYCAATSLYPTWRRGYDYWGQGTQVTVSS | high polyreactivity
40 | QVQLVESGGGLVQAGGSLRLSCAASGRTFDSYTMGWYRQAPGKERELVARIRWSGGSTYYADSVKGRFTISRDNAKNTVYLQMNSLKPEDTAVYYCAVYQYVGYTMDYWGQGTQVTVSS | low polyreactivity
41 | QVQLVESGGGLVQAGGSLRLSCAASGRTFDTYAMGWYRQAPGKERELVAAISTTGRTYYADSVKGRFTISRDNAKNTVYLQMNSLKPEDTALYYCATDPTRSPTSDWGYYYWGQGTQVTVSS | low polyreactivity
42 | QVQLVESGGGLVQAGGSLRLSCAASGRTFDTYVMGWYRQAPGKERELVAAISIGGNTNYADSVKGRFTISRDNAKNTVYLQMNSLKPEDTAVYYCAKAWSGISSRDYDLDYWGQGTQVTVSS | low polyreactivity
43 | QVQLVESGGGLVQAGGSLRLSCAASGRTFDVNAMGWYRQAPGKERELVAAIRISGGSTYYADSVKGRFTISRDNAKITVYLQMNSLKPEDTAVYYCAAYERRYRNAYDYWGQGTQVTVSS | high polyreactivity
